{
  "source": "patent US20210346401",
  "key": {"[1]": {"target": "HA-tagged RIG-I (overexpressed in HEK293 cells) (UniProt O95786)", "sequence (O95786 whole entry)": "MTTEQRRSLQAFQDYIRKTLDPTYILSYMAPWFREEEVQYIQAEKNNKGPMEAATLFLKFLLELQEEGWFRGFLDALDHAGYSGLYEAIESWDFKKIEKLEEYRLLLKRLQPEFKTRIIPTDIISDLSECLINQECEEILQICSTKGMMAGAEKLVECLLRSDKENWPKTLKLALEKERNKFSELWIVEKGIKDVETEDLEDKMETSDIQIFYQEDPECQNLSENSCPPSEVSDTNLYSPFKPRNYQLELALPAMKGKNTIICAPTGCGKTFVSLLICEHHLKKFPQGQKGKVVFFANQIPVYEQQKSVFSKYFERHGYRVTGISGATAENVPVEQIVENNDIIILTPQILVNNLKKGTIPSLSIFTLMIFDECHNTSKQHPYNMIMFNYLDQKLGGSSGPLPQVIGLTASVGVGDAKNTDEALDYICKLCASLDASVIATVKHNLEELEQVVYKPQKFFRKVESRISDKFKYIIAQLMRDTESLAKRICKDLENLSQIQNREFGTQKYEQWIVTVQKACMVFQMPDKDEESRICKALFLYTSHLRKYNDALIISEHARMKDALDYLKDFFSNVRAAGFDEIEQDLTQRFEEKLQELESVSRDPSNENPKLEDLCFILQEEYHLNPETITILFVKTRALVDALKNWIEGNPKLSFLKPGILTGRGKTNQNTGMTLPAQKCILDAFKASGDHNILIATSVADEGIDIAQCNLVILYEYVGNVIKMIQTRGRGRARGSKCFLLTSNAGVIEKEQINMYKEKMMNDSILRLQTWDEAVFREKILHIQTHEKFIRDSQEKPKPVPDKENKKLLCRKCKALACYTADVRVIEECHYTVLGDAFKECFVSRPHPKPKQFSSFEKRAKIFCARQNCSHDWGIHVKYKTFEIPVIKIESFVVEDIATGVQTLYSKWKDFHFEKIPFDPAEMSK"}, "VISA-6YF": {"target": "VISA-6YF (UniProt Q7Z434)", "sequence (Q7Z434 other isoform, or with tags, fused parts or gaps)": "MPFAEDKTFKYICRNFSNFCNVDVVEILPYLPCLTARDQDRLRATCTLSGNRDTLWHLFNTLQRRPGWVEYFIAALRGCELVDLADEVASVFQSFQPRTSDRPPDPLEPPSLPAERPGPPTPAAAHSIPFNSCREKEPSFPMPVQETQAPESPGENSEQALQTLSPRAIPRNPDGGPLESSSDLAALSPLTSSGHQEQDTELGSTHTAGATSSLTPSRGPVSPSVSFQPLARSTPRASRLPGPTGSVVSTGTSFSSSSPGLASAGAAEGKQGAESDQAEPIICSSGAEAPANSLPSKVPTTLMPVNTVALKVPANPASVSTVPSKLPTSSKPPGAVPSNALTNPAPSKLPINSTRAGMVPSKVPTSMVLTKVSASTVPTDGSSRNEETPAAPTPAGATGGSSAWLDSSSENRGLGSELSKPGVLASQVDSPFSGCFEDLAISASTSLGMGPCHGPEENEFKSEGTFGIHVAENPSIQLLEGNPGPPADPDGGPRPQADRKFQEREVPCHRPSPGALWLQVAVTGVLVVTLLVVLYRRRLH"}, "[2]": {"target": "HA-tagged VISA (overexpressed in HEK293 cells) (UniProt Q7Z434)", "sequence (Q7Z434 whole entry)": "as the sequence (Q7Z434 other isoform, or with tags, fused parts or gaps) above, with F9Y, F92Y, F95Y, F130Y, F140Y, F460Y counted along it"}, "IRF3-Y/F": {"target": "IRF3-Y/F (UniProt Q14653)"}, "MITA-Y/F": {"target": "MITA-Y/F (UniProt Q86WV6)", "sequence (Q86WV6 whole entry Y245F)": "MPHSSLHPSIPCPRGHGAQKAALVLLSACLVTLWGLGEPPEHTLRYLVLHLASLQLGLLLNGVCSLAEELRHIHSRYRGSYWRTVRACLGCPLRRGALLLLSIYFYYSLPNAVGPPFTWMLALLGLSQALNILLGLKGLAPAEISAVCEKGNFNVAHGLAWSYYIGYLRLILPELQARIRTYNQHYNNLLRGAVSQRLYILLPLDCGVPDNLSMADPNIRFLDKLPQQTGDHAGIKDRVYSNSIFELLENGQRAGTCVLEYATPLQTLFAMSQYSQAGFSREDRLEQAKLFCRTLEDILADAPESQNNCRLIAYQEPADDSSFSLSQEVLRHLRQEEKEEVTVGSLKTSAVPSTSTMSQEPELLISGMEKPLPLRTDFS"}, "[3]": {"target": "HA-tagged MITA (overexpressed in HEK293 cells) (UniProt Q86WV6)", "sequence (Q86WV6 whole entry)": "as the sequence (Q86WV6 whole entry Y245F) above, with F245Y counted along it"}, "[4]": {"target": "HA-tagged TBK1 (overexpressed in HEK293 cells) (UniProt Q9UHD2)"}, "[5]": {"target": "HA-tagged IRF3 (overexpressed in HEK293 cells) (UniProt Q14653)"}, "[6]": {"target": "HA-tagged cGAS (overexpressed in HEK293 cells) (UniProt Q8N884)"}, "RIG-I (endogenous, MLFs)": {"target": "RIG-I (endogenous, MLFs) (UniProt Q6Q899)", "sequence (Q6Q899 whole entry)": "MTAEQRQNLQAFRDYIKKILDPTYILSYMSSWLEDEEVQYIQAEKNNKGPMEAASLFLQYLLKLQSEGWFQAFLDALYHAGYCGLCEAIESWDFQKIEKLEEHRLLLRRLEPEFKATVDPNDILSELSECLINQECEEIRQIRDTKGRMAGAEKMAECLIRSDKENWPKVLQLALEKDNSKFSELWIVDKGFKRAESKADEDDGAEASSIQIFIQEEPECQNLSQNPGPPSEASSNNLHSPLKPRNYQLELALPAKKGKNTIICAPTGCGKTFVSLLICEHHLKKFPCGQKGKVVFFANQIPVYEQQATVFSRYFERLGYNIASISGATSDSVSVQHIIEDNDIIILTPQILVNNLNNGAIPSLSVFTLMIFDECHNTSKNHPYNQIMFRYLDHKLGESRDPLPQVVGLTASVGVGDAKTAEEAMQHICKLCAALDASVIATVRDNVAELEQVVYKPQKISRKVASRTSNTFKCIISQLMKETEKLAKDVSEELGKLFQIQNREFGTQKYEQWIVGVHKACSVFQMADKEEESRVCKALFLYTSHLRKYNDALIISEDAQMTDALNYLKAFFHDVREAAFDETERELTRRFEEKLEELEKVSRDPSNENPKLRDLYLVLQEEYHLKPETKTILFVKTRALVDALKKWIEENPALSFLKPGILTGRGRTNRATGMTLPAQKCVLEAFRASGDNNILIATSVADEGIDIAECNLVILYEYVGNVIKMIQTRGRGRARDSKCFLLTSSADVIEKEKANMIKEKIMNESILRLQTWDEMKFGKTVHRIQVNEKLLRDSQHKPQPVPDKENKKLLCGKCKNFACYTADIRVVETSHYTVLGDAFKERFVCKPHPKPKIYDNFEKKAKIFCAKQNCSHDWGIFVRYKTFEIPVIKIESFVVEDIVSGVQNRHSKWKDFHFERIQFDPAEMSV"}, "IRF3 (endogenous, MLFs)": {"target": "IRF3 (endogenous, MLFs) (UniProt P70671)", "sequence (P70671 whole entry)": "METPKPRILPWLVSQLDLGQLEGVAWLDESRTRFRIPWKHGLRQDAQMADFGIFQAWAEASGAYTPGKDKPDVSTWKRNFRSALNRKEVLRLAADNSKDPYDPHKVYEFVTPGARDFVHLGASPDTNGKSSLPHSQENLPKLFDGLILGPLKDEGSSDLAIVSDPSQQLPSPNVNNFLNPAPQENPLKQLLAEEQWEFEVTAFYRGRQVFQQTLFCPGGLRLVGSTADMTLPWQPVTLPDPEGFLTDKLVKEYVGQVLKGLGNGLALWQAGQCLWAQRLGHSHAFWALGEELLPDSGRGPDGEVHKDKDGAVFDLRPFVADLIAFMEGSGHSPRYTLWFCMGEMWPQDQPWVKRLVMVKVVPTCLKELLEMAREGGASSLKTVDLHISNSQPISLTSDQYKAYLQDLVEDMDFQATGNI"}, "[7]": {"target": "VISA/MAVS (endogenous, MLFs) (UniProt Q8VCF0)", "sequence (Q8VCF0 whole entry)": "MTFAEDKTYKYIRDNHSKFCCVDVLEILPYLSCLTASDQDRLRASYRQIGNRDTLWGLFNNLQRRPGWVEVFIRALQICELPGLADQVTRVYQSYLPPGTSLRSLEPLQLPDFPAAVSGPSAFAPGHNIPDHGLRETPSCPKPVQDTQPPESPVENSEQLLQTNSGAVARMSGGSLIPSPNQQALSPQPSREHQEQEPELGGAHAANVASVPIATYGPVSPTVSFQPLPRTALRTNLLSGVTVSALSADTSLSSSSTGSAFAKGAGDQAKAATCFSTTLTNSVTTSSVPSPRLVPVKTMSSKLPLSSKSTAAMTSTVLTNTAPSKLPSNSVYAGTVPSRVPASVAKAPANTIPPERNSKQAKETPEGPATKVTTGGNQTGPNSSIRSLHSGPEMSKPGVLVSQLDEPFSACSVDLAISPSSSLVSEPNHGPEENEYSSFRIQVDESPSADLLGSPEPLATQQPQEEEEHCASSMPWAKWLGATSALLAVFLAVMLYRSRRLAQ"}, "[8]": {"target": "MITA/STING (endogenous, MLFs) (UniProt Q3TBT3)", "sequence (Q3TBT3 whole entry)": "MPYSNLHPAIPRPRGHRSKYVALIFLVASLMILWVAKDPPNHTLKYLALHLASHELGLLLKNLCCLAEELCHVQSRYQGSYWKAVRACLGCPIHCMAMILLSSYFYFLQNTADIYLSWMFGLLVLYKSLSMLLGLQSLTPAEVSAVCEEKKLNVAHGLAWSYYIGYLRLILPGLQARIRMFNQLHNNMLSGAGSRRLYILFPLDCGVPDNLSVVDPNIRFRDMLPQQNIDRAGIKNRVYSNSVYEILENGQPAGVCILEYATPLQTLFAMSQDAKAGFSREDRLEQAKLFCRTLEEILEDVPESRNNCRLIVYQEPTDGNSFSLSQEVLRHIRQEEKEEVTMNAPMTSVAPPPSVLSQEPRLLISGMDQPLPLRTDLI"}, "TBK1 (endogenous, MLFs)": {"target": "TBK1 (endogenous, MLFs) (UniProt Q9WUN2)", "sequence (Q9WUN2 whole entry)": "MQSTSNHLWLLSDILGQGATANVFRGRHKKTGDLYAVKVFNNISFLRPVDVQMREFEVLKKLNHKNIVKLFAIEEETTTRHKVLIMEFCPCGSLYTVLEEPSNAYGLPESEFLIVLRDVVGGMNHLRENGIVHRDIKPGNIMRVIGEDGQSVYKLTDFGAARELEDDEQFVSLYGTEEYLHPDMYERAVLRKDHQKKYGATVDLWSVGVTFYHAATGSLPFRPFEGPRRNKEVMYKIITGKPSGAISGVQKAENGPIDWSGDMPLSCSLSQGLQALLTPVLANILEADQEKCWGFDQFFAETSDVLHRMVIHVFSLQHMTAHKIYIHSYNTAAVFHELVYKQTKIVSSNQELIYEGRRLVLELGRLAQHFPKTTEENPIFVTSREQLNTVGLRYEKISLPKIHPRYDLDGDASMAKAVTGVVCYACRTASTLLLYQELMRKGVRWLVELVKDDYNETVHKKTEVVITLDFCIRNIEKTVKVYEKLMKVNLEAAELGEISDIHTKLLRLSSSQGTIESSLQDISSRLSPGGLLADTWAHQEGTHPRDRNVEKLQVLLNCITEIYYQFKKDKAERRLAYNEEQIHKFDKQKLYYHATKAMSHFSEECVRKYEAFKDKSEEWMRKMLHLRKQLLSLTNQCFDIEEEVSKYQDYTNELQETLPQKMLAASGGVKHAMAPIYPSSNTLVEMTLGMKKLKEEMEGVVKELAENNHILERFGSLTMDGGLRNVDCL"}},
  "data": [
    {"substance": "Flag-tagged SRC (overexpressed in HEK293 cells)", "values": [
      {"measurement": "tyrosine phosphorylation (IP with HA antibody, immunoblot)", "setting": "[1]", "value": "overexpression of SRC caused tyrosine phosphorylation of RIG-I, VISA, MITA, TBK1 and IRF3, but not cGAS"},
      {"measurement": "SRC-mediated tyrosine phosphorylation (IP, immunoblot)", "setting": "VISA-6YF", "value": "Simultaneous mutation of Y9, Y92, Y95, Y130, Y140 and Y460 of VISA to F (VISA-6YF) impaired SRC-mediated tyrosine phosphorylation"},
      {"measurement": "tyrosine phosphorylation (IP with HA antibody, immunoblot)", "setting": "[2]", "value": "overexpression of SRC caused tyrosine phosphorylation of RIG-I, VISA, MITA, TBK1 and IRF3, but not cGAS"},
      {"measurement": "SRC-mediated tyrosine phosphorylation (IP, immunoblot)", "setting": "IRF3-Y/F", "value": "Mutation of Y107 of IRF3 to F (IRF3-Y/F) impaired SRC-mediated tyrosine phosphorylation of IRF3"},
      {"measurement": "SRC-mediated tyrosine phosphorylation (IP, immunoblot)", "setting": "MITA-Y/F", "value": "Mutation of Y245 of MITA to F (MITA-Y/F) abolished SRC-mediated tyrosine phosphorylation of MITA"},
      {"measurement": "tyrosine phosphorylation (IP with HA antibody, immunoblot)", "setting": "[3]", "value": "overexpression of SRC caused tyrosine phosphorylation of RIG-I, VISA, MITA, TBK1 and IRF3, but not cGAS"},
      {"measurement": "tyrosine phosphorylation (IP with HA antibody, immunoblot)", "setting": "[4]", "value": "overexpression of SRC caused tyrosine phosphorylation of RIG-I, VISA, MITA, TBK1 and IRF3, but not cGAS"},
      {"measurement": "tyrosine phosphorylation (IP with HA antibody, immunoblot)", "setting": "[5]", "value": "overexpression of SRC caused tyrosine phosphorylation of RIG-I, VISA, MITA, TBK1 and IRF3, but not cGAS"},
      {"measurement": "tyrosine phosphorylation (IP with HA antibody, immunoblot)", "setting": "[6]", "value": "overexpression of SRC caused tyrosine phosphorylation of RIG-I, VISA, MITA, TBK1 and IRF3, but not cGAS"}
    ]},
    {"substance": "SRC (endogenous, MLFs)", "values": [
      {"measurement": "virus-induced tyrosine phosphorylation in SRC-deficient MLFs (IP, immunoblot)", "setting": "RIG-I (endogenous, MLFs)", "value": "SRC-deficiency impaired SeV- or HSV-1-induced tyrosine phosphorylation of endogenous RIG-I, VISA/MAVS, TBK1, IRF3 and MITA/STING"},
      {"measurement": "virus-induced tyrosine phosphorylation in SRC-deficient MLFs (IP, immunoblot)", "setting": "IRF3 (endogenous, MLFs)", "value": "SRC-deficiency impaired SeV- or HSV-1-induced tyrosine phosphorylation of endogenous RIG-I, VISA/MAVS, TBK1, IRF3 and MITA/STING"},
      {"measurement": "virus-induced tyrosine phosphorylation in SRC-deficient MLFs (IP, immunoblot)", "setting": "[7]", "value": "SRC-deficiency impaired SeV- or HSV-1-induced tyrosine phosphorylation of endogenous RIG-I, VISA/MAVS, TBK1, IRF3 and MITA/STING"},
      {"measurement": "virus-induced tyrosine phosphorylation in SRC-deficient MLFs (IP, immunoblot)", "setting": "[8]", "value": "SRC-deficiency impaired SeV- or HSV-1-induced tyrosine phosphorylation of endogenous RIG-I, VISA/MAVS, TBK1, IRF3 and MITA/STING"},
      {"measurement": "virus-induced tyrosine phosphorylation in SRC-deficient MLFs (IP, immunoblot)", "setting": "TBK1 (endogenous, MLFs)", "value": "SRC-deficiency impaired SeV- or HSV-1-induced tyrosine phosphorylation of endogenous RIG-I, VISA/MAVS, TBK1, IRF3 and MITA/STING"}
    ]}
  ]
}
